The values that follow come from PMC4749553 (2015).

The target of the assay is T1, His6-Tim44(43–263) (Saccharomyces cerevisiae (strain ATCC …, UniProt Q01852)).
T1 chain: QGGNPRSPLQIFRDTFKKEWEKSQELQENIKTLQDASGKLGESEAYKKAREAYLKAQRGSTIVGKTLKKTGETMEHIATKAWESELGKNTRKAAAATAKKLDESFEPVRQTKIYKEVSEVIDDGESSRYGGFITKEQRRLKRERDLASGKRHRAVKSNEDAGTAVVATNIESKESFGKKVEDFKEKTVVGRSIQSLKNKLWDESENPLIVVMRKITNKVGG
Put plainly: Ni-NTA pull-down, Coomassie-stained SDS-PAGE.

B1: Tim44(211–431) (protein)
chain: NIESKESFGKKVEDFKEKTVVGRSIQSLKNKLWDESENPLIVVMRKITNKVGGFFAETESSRVYSQFKLMDPTFSNESFTRHLREYIVPEILEAYVKGDVKVLKKWFSEAPFNVYAAQQKIFKEQDVYADGRILDIRGVEIVSAKLLAPQDIPVLVVGCRAQEINLYRKKKTGEIAAGDEANILMSSYAMVFTRDPEQIDDDETEGWKILEFVRGGSRQFT
With B1, the binding result is “no binding”.
